Results as given in patent US20030125231.

Test system: Histone III (type ss from calf thymus)

In the case of “His-tagged Pim-2 (purified recombinant human Pim-2, expressed in E. coli)”, the “Incorporation of 33P into Histone (in vitro kinase assay, 15, 30 and 60 min)” value is reported as “purified recombinant Pim-2 is active in phosphorylating Histone”.
